From patent publication US20190077863A1 (AERPIO PHARMACEUTICALS, published 2019) come the findings set out here.

In assay [1] the target is T1, Human HPTP-η with C-terminal His10 tag (Human HPTP-η ECD) (human, UniProt Q12913 36-975).
T1 construct: Produced in HEK293 cells; it was not cut off; also called Human PTPη; human PTP-η
T1 sequence: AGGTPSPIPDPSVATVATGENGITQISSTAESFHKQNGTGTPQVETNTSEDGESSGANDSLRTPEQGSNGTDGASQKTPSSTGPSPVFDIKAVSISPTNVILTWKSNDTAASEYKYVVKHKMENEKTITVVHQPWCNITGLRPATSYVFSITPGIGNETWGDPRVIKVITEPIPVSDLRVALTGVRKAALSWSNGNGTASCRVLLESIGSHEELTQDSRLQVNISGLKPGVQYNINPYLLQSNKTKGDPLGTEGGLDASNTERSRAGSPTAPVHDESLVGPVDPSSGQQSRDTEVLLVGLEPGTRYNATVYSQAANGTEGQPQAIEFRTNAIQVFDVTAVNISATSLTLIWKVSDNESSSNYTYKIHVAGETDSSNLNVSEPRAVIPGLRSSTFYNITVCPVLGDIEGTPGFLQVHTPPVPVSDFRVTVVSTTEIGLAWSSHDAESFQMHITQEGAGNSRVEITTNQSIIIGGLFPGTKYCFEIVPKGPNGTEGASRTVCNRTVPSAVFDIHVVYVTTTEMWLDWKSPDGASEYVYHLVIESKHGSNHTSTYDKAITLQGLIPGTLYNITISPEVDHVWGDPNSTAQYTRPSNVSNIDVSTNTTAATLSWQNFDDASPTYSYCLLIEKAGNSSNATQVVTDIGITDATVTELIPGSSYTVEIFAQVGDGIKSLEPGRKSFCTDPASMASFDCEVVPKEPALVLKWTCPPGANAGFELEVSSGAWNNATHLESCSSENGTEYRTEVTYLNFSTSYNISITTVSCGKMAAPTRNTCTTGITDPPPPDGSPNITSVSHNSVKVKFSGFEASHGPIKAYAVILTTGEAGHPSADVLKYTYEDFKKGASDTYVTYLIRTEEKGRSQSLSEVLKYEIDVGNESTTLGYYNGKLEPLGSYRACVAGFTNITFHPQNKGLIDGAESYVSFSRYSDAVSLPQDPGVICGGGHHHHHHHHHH
The experiment in a line: ELISA, coated antigen. How it is done:
(§1) HPTP-β, cyno PTP-β, and HPTP-η proteins were coated onto ELISA plates in coating buffer (pH 9.4). Each protein was prepared as a 1 μg/mL protein stock in 50 mM carbonate-bicarbonate. The coated proteins were aliquoted at a volume of 100 μL/well into sterile, clear, polystyrene, flat bottom 96-well plates. The plates were incubated overnight at 4° C. After overnight incubation, the plates were washed 3× with 200 μL/well of 1×PBS-T (PBS with 0.05% Tween 20). The immunizing protein was human VE-PTP (HPTP-β). The plates were then blocked with 200 μL/well of 5% blotting grade blocker non-fat dry milk in PBS-T and incubated for 1 hr at room temperature.
(§2) Primary antibody samples were prepared for the humanized variants and the negative control, anti-hCD20-hIgG4S228P, using 1 μg/well in 5% blotting grade blocker non-fat dry milk in PBS. Samples were tested in triplicates. The Fab antibody fragments were treated as the IgG antibodies. The plates were then washed 3× with PBS-T and 100 μL of primary antibody preparation was added in each well. The plates were then incubated for 1 hr at room temperature.
(§3) Then, […] Ultra TMB-ELISA was added in each well, and the plate was allowed to develop for 5 min at room temperature. After 5 min, 50 μL of 2 M sulfuric acid was added to each well to stop the reaction. The plates were then analyzed on a plate reader at an absorbance wavelength of 450 nm.
Background: ELISA stands for enzyme-linked immunosorbent assay.

Assay [2] deals with T2, Cynomolgus VE-PTP (Cyno PTP-β) containing first eight FN3 repeats with C-terminal His10 tag (Cyno Beta ½ … (cynomolgus, UniProt P23467 25-817 (human entry))).
T2 construct: Produced in HEK293 cells; it was not cut off; also called Cyno VE-PTP
T2 chain: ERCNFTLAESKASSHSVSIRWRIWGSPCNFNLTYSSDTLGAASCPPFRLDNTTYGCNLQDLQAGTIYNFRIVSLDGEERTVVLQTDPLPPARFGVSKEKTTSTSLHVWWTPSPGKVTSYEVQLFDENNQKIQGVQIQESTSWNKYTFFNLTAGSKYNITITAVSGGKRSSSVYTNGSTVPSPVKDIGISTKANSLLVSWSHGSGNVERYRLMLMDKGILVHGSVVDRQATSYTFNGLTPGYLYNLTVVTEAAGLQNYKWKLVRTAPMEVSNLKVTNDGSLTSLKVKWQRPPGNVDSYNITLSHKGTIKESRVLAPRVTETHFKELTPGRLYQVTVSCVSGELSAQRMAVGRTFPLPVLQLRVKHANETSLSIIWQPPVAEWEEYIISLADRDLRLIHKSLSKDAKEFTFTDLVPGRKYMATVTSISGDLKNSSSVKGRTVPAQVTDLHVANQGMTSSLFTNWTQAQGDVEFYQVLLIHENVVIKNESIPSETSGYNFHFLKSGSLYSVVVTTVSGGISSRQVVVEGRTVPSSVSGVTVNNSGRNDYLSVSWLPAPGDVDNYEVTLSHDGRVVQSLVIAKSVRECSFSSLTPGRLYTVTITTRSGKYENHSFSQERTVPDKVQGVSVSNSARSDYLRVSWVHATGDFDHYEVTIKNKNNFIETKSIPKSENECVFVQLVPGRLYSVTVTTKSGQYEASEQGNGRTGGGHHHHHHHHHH
The assay can be described thus: ELISA, coated antigen. The method, then:
as §1, §2, §3

Assay [3] addresses T3, Human VE-PTP (HPTP-β) containing first eight FN3 repeats with C-terminal His6 tag (Human ½ VE-PTP ECD) (human, UniProt P23467 23-820).
T3 construct: Produced in HEK293 cells and purified by the His tag; it was not cut off; also called Human Beta ½ ECD
T3 sequence: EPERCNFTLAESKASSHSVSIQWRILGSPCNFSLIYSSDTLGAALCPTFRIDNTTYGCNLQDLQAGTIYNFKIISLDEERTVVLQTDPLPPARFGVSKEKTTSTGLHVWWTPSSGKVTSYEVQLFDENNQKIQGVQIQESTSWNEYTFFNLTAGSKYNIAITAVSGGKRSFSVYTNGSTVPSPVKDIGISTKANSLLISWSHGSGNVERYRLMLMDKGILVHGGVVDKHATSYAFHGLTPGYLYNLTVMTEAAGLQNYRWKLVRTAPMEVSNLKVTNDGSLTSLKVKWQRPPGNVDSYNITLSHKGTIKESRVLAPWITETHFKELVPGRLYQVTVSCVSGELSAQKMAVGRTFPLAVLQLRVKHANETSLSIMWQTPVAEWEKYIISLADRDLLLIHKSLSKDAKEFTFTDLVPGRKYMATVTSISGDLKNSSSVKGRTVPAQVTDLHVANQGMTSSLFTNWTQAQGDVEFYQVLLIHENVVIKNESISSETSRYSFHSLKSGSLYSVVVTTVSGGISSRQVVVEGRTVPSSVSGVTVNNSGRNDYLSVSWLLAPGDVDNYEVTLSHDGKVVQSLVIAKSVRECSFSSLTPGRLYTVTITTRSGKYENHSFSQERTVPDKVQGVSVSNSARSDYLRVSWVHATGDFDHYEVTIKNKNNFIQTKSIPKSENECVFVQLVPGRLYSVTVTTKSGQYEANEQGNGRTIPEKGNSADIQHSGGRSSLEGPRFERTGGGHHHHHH
The experiment in a line: ELISA, antigen coated at 1 µg/mL, antibody 1 µg/well. How it is done: as §1, §2, §3

Another assay concerns the target T4, Tie2 (human, UniProt Q02763 23-1124).
T4 construct: Named only as 'Tie2 (R2/T2)' in the immunoprecipitation experiment with HUVECs; also called T2
The assay can be described thus: immunoprecipitation western blot, HUVECs. (In general: In western blotting, separated proteins are transferred to a membrane and probed.)

A further assay deals with T5, VEGFR2 (human, UniProt P35968 20-1356).
T5 construct: Named only as 'VEGFR2; (R2/T2)' in the immunoprecipitation experiment with HUVECs
The assay can be described thus: immunoprecipitation western blot, HUVECs.

T4 sequence (Q02763 23-1124 limits assumed): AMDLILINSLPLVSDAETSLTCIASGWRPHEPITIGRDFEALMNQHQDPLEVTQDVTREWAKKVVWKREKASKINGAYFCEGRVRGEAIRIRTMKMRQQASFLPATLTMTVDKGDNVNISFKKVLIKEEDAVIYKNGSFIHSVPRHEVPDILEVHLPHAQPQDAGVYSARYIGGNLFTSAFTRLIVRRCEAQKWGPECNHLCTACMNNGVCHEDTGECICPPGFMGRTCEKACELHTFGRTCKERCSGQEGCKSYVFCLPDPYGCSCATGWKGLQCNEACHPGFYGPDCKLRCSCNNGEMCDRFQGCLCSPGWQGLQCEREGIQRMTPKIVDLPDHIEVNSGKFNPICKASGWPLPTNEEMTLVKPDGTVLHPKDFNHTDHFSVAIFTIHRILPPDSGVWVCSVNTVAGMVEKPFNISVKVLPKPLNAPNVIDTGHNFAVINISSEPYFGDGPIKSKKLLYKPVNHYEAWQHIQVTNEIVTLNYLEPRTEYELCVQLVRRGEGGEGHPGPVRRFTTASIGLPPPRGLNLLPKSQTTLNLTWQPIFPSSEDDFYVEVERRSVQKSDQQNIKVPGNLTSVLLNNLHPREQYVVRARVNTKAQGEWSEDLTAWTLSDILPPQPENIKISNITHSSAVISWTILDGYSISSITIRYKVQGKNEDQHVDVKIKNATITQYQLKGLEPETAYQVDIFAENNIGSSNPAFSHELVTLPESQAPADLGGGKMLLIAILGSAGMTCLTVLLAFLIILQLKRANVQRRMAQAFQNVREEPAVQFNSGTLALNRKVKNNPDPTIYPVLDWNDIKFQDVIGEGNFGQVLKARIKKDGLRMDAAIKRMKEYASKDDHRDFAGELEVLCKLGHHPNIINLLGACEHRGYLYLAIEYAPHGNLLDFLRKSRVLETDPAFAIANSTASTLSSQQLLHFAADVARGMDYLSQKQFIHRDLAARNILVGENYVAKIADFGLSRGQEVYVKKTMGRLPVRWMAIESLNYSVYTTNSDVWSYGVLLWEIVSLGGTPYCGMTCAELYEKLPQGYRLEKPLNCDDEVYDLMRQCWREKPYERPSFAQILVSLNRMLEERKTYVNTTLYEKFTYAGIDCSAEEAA
T5 sequence (P35968 20-1356 limits assumed): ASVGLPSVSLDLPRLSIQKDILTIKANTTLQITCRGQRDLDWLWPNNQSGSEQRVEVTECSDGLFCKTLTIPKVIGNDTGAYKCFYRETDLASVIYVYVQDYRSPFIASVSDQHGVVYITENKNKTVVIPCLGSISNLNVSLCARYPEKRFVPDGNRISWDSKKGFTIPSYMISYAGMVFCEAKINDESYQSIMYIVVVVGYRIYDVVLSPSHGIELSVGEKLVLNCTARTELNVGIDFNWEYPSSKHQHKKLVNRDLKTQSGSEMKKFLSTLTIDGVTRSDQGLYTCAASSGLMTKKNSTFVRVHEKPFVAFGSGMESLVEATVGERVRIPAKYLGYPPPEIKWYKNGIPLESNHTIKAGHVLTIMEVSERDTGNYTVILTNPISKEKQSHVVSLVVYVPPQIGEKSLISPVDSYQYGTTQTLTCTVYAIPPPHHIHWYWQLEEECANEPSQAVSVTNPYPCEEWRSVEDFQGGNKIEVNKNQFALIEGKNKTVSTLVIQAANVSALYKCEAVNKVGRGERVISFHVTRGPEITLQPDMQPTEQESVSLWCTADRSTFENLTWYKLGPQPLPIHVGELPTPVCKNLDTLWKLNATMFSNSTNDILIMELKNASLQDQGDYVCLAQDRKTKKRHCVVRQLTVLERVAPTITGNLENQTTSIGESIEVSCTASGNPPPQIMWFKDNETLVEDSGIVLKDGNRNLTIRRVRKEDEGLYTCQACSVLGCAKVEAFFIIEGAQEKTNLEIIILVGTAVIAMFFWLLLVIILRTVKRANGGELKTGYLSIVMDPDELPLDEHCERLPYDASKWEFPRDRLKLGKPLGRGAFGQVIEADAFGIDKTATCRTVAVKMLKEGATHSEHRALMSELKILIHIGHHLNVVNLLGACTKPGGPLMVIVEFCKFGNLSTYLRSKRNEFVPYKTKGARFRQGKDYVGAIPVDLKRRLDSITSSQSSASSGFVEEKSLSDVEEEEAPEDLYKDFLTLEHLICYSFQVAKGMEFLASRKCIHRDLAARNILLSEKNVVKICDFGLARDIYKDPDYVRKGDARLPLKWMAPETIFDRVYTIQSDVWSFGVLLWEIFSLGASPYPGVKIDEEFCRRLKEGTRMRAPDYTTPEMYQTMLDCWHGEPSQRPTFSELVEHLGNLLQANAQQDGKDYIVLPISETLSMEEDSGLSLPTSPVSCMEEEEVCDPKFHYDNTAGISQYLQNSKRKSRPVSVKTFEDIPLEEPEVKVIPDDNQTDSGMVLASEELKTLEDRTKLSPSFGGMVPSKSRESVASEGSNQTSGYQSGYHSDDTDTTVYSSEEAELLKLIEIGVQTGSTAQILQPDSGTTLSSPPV

B1: murine monoclonal antibody R15E6 (antibody, V domains shown)
VH: EVQLVETGGGLVQPKGSMKLSCAASGFTFNANAMNWIRQAPGKGLEWVARIRTKSNNYATYYAGSVKDRFTISRDDAQNMLYLQMNDLKTEDTAMYYCVRDYYGSSAWITYWGQGTLVTVSA
VL: DIVMTQSHKFMSTSVGDRVSITCKASQHVGTAVAWYQQKPDQSPKQLIYWASTRHTGVPDRFTGSGSGTDFTLTISNVQSEDLADYFCQQYSSYPFTFGSGTKLEIK
notes: Murine monoclonal antibody of hybridoma ATCC PTA-7580, 150 kDa; also called Parental; parental antibody
Take B1: the binding result in assay [1] is “no binding (tested: <=0.2; 1 µg/well)”; in assay [2], “no binding (tested: <=0.2; 1 µg/well)”; with Tie2, “no binding”; with VEGFR2, “no binding”. In addition, the “ELISA value (absorbance at 450 nm)” value in assay [3] is 2.43.
